Measured values: patent US20040086512A1 (THOMAS JEFFERSON UNIVERSITY, published 2004)

B1: VMI11 peptide TMTPPPTSVRGT (peptide)
peptide: TMTPPPTSVRGT
notes: 12-mer with PXP motif from the Ph.D.-12 library; also called ID; NO: 15
B2: VMI14 peptide YPAPIKVLLPNS (peptide)
peptide: YPAPIKVLLPNS
notes: 12-mer with PXP motif from the Ph.D.-12 library; also called ID; NO: 18
B3: VMI13 peptide GPPPHHRDYHGP (peptide)
peptide: GPPPHHRDYHGP
notes: 12-mer with PXP motif from the Ph.D.-12 library; also called ID; NO: 17
B4: VMI7 peptide SNQGGSPLPRSV (peptide)
peptide: SNQGGSPLPRSV
notes: 12-mer with PXP motif; also called VM17; ID; NO: 11
B5: VMI4 peptide SLHWPVSHPPPP (peptide)
peptide: SLHWPVSHPPPP
notes: 12-mer with PXP motif from the Ph.D.-12 library; also called ID; NO: 8
B6: VMI10 peptide YPLPHPMWSMLP (peptide)
peptide: YPLPHPMWSMLP
notes: 12-mer with PXP motif from the Ph.D.-12 library; also called ID; NO: 14
B7: VMI6 peptide WHSQRLSPVPPA (peptide)
peptide: WHSQRLSPVPPA
notes: 12-mer with PXP motif from the Ph.D.-12 library; also called ID; NO: 10
B8: VMI9 peptide LPLPAPSFHRTT (peptide)
peptide: LPLPAPSFHRTT
notes: 12-mer with PXP motif; also called ID; NO: 13
B9: VMI8 peptide SEPHLPFPVLPH (peptide)
peptide: SEPHLPFPVLPH
notes: 12-mer with PXP motif from the Ph.D.-12 library; also called ID; NO: 12
B10: VMI16 peptide SPYPSWSTPAGR (peptide)
peptide: SPYPSWSTPAGR
notes: 12-mer with PXP motif from the Ph.D.-12 library; also called ID; NO: 20
B11: VMI12 peptide TPLPTIRGDTGT (peptide)
peptide: TPLPTIRGDTGT
notes: 12-mer with PXP motif from the Ph.D.-12 library; also called ID; NO: 16
B12: VMI15 peptide SPYPMALFPLHN (peptide)
peptide: SPYPMALFPLHN
notes: 12-mer with PXP motif from the Ph.D.-12 library; also called ID; NO: 19
B13: VMI2 peptide WPTNPTTVPVPS (peptide)
peptide: WPTNPTTVPVPS
notes: 12-mer with PXP motif from the Ph.D.-12 library; also called ID; NO: 6
B14: VMI1 peptide SNFASITTPRPH (peptide)
peptide: SNFASITTPRPH
notes: 12-mer with PXP motif from the Ph.D.-12 library; also called ID; NO: 5
B15: VMI5 peptide SVSVGMKPSPRP (peptide)
peptide: SVSVGMKPSPRP
notes: 12-mer with PXP motif; also called ID; NO: 9

The binders below were run against T1, GST-Vif fusion protein (HIV-1 (HIV-1NL4-3), UniProt P12504 1-192) (assay: phage peptide display, phage ELISA on coated GST-Vif).
T1 construct: range 1-192; Expressed from pGEX in BL21 E. coli, held on glutathione-agarose beads or coated on ELISA plates; also called purified HIV-1 Vif protein; not shown: glutathione-S-transferase encoded by the pGEX vector
T1 sequence (P12504 whole entry, the tested form may be a part): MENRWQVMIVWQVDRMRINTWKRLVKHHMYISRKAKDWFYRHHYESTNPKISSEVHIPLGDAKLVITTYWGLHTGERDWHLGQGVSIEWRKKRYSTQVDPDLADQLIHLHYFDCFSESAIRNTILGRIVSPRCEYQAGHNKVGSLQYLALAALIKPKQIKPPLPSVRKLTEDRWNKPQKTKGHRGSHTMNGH
B1: binds. B2: binds. B3: binds. B4: binds. B5: binds. B6: binds. B7: binds. B8: binds. B9: binds. B10: binds. B11: binds. B12: binds. B13: binds. B14: binds. B15: binds.
